Data from patent US20190300590A1 (PROTAGONIST THERAPEUTICS, published 2019).
Read-outs that look alike come from different tables or passages of the source. *1 amine or outer side, *2 acyl side, *3 side chain or, on linkers, in order; H or OH if unused. Bridges are numbered along the chain shown (N, C = ends). [ ]: non-standard residue; d: D form. Phe(4-(2-acetylaminoethoxy)) = 4-(2-acetamidoethoxy)-phenylalanine, CC(=O)NCCOc1ccc(C[C@H](N[*:1])C(=O)[*:2])cc1; Phe(4-OMe) = 4-methoxy-L-phenylalanine (O-methyl-L-tyrosine), COc1ccc(C[C@H](N[*:1])C(=O)[*:2])cc1; Phe(4-N3) = [N-]=[N+]=Nc1ccc(C[C@H](N)C(=O)O)cc1; Phe(3,4-Cl2) = N[C@@H](Cc1ccc(Cl)c(Cl)c1)C(=O)O; Phe(4-CONH2) = NC(=O)c1ccc(C[C@H](N)C(=O)O)cc1; Phe(3,4-F2) = N[C@@H](Cc1ccc(F)c(F)c1)C(=O)O; Phe(4-Br) = N[C@@H](Cc1ccc(Br)cc1)C(=O)O; Phe(4-NH2) = Nc1ccc(C[C@H](N)C(=O)O)cc1; 1Nal = N[C@@H](Cc1cccc2ccccc12)C(=O)O; 2Nal = N[C@@H](Cc1ccc2ccccc2c1)C(=O)O; AEF = NCCOc1ccc(C[C@H](N)C(=O)O)cc1; αMeL = CC(C)C[C@](C)(N)C(=O)O; hLeu = CC(C)CC[C@H](N)C(=O)O; αMeK = C[C@](N)(CCCCN)C(=O)O; Abu = CC[C@H](N)C(=O)O; Aib = CC(C)(N)C(=O)O; βAla = NCCC(=O)O

T1: IL-23R on human cells (IL-23R-expressing DB cells; human NK cells) (human, UniProt Q5VWK5 24-629)
T1 sequence (looked up): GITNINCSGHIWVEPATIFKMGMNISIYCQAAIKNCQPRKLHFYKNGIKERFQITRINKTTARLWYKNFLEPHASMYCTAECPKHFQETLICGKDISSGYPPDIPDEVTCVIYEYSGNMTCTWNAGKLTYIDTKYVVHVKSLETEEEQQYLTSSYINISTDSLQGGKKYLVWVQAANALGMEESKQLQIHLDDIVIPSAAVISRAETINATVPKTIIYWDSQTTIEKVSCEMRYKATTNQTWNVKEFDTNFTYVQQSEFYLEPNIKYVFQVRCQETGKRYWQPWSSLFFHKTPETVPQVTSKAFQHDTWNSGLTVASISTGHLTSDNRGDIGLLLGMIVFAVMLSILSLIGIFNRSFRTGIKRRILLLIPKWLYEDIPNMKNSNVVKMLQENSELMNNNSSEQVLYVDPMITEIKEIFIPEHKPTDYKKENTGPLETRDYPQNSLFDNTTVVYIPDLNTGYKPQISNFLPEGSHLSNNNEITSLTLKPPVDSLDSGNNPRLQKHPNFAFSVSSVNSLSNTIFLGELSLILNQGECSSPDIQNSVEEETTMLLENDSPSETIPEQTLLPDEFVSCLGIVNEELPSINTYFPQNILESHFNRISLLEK

T2: IL23R_huFC (human, UniProt Q5VWK5 24-353)
T2 sequence (looked up): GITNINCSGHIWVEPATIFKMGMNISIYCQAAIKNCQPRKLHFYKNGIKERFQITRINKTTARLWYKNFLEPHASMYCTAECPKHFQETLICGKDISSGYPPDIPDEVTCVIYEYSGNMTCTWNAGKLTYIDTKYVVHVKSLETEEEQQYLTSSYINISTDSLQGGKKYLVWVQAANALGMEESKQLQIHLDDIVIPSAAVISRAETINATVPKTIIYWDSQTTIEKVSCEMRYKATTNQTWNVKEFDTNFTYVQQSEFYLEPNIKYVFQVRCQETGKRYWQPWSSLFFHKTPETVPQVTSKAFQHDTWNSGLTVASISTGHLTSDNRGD


Assays:
Rat IL-23R_huFC [1] = target: Rat IL-23R_huFC (rat); assay: rat ELISA vs IL-23
[2] = target: T1, IL-23R on human cells …; assay: cell-based or functional assay
IL23R_huFC [3] = target: T2, IL23R_huFC; assay: human ELISA vs IL-23
Rat IL-23R_huFC [4] = target: Rat IL-23R_huFC (rat); assay: rat ELISA vs IL-23; remark: listed apart in the source
IL23R_huFC [5] = target: T2, IL23R_huFC; assay: human ELISA vs IL-23; remark: listed apart in the source

| Binder | IC50 (Rat IL-23R_huFC [1]) | pStat3 HTRF IC50 [2] | IC50 (IL23R_huFC [3]) | IC50 (Rat IL-23R_huFC [4]) | IC50 (IL23R_huFC [5]) |
| --- | --- | --- | --- | --- | --- |
| Ac-[Abu]QTWQC[Phe(4-CONH2)][2Nal][αMeK]K(Ac)NG-NH2 (thioether 1-6) [Ac-Cyclo-[[Abu]-QTWQC]-[Phe(4-CONH2)]-[2-Nal][α-MeLys]-[Lys(Ac)]NG-NH2] | 25 to 100 nM |  |  |  |  |
| XQTWQCYWXKNG (as bracketed in name; thioether cyclo) [Ac-Cyclo-[[Abu]-QTWQC-YW-[α-MeOrn]-[Lys(Ac)]-NG-NH2] | 25 to 100 nM |  |  |  |  |
| Ac-[Abu]QTWQC[AEF][Phe(3,4-Cl2)][Aib]ENN-NH2 (thioether 1-6) [Ac-Cyclo-[[Abu]-QTWQC]-[Phe[4-(2-aminoethoxy)]]-[Phe(3,4-Cl2)]-[Aib]-ENN-NH2] |  | < 10 nM | 25 to 100 nM |  |  |
| Ac-[Abu]QTWQC[Phe(4-Br)]W[αMeK]ENG-NH2 (thioether 1-6) [Ac-Cyclo-[[Abu]-QTWQC]-[Phe(4-Br)] W-[α-MeLys]-ENG-NH2] | 25 to 100 nM |  |  |  |  |
| Ac-[Abu]QTWQC[Phe(3,4-F2)][2Nal][Aib]ENG-NH2 (thioether 1-6) [Ac-Cyclo-[[Abu]-QTWQC]-[Phe(3,4-F2)]-[2-Nal]-[Aib]-ENG-NH2] |  |  | 25 to 100 nM |  |  |
| Ac-[Abu]QTWQC[AEF][2Nal][αMeK]K(Ac)NG-NH2 (thioether 1-6) [Ac-Cyclo-[[Abu]-QTWQC]-[Phe[4-(2-aminoethoxy)]]-[2-Nal]-[α-MeLys]-[Lys(Ac)]-NG-NH2] |  |  |  | < 10 nM |  |
| Ac-[Abu]QTWQC[Phe(4-NH2)]W[αMeK]ENG-NH2 (thioether 1-6) [Ac-Cyclo-[[Abu]-QTWQC]-[Phe(4-NH2)]-W-[α-MeLys]-ENG-NH2] | 25 to 100 nM |  |  |  |  |
| Ac-[dE][Abu]QTWQC[AEF][2Nal][αMeK]ENN-NH2 (thioether 2-7) [Ac-(D)Glu-[Cyclo-[[Abu]-QTWQC]-[Phe[4-(2-aminoethoxy)]]-[2-Nal]-[α-MeLys]-ENN-NH2] |  | < 10 nM |  | < 10 nM | < 10 nM |
| Ac-[Abu]QTWQC[Phe(4-N3)][2Nal][αMeK]K(Ac)NG-NH2 (thioether 1-6) [Ac-Cyclo-[[Abu]-QTWQC]-[Phe-4-N3]-[2-Nal]-[α-MeLys]-[Lys(Ac)]-NG-NH2] | 25 to 100 nM |  |  |  |  |
| Ac-[Abu]QTWQC[Phe(4-OMe)][1Nal][αMeK]K(Ac)NG-NH2 (thioether 1-6) [Ac-Cyclo-[[Abu]-QTWQC]-[Phe(4-OMe)]-[1-Nal][α-MeLys]-[Lys(Ac)]-NG-NH2] | 25 to 100 nM |  |  |  |  |
| Ac-[Abu]QTWQC[AEF][2Nal][αMeL]ENN-NH2 (thioether 1-6) [Ac-Cyclo-[[Abu]-QTWQC]-[Phe[4-(2-aminoethoxy)]]-[2-Nal]-[α-MeLeu]-ENN-NH2] |  | < 10 nM |  | < 10 nM | < 10 nM |
| Ac-[Abu]QTWQC[Phe(4-(2-acetylaminoethoxy))][2Nal][αMeK](Ac)ENQ-NH2 (thioether 1-6) [Ac-Cyclo-[[Abu]-QTWQC]-[Phe[4-(2-(acetyl-aminoethoxy)]]-[2-Nal]-[α-MeLys(Ac)]-ENQ-NH2] |  | < 10 nM |  | < 10 nM | < 10 nM |
| Ac-[Abu]QTWQC[Phe(4-(2-acetylaminoethoxy))][2Nal][αMeK](Ac)ENN-NH2 (thioether 1-6) [Ac-Cyclo-[[Abu]-QTWQC]-[Phe[4-(2-(acetyl-aminoethoxy)]]-[2-Nal]-[α-MeLys(Ac)]]-ENN-NH2] |  | < 10 nM |  | < 10 nM | < 10 nM |
| Ac-[Abu]QTWQC[AEF][2Nal][αMeL]K(Ac)NN-NH2 (thioether 1-6) [Ac-Cyclo-[[Abu]-QTWQC]-[Phe[4-(2-aminoethoxy)]]-[2-Nal]-[α-MeLeu]-[Lys(Ac)]-NN-NH2] |  | < 10 nM |  | < 10 nM | < 10 nM |
| Ac-[Abu]QTWQC[AEF][2Nal][αMeK]ENG-NH2 (thioether 1-6) [Ac-Cyclo-[[Abu]-QTWQC]-[Phe[4-(2-aminoethoxy)]]-[2-Nal]-[α-MeLys]-ENG-NH2] |  | < 10 nM |  | < 10 nM |  |
| Ac-[Abu]QTWQC[AEF][2Nal][hLeu]K(Ac)N[βAla]-NH2 (thioether 1-6) [Ac-Cyclo-[[Abu]-QTWQC]-[Phe[4-(2-aminoethoxy)]]-[2-Nal]-[hLeu]-[Lys(Ac)]-N-[βAla]-NH2] |  | < 10 nM |  | < 10 nM | < 10 nM |
| Ac-[Abu]QTWQC[Phe(4-(2-acetylaminoethoxy))][2Nal][αMeK](Ac)ENG-NH2 (thioether 1-6) [Ac-Cyclo-[[Abu]-QTWQC]-[Phe[4-(2-(acetyl-aminoethoxy)]]-[2-Nal]-[α-MeLys(Ac)]-ENG-NH2] |  | < 10 nM |  | < 10 nM |  |
